# Data as given in patent publication US20100081620.
# T1: Dabcyl-LAQAHomoPheRSC(Fluorescein)-NH2
# T1 chain: LAQAFRSC
# B1: Human ADAM10 protease containing the catalytic/disintegrin domains (protein)
# chain: TTSAEKNTCQLYIQTDHLFFKYYGTREAVIAQISSHVKAIDTIYQTTDFSGIRNISFMVKRIRINTTADEKDPTNPFRFPNIGVEKFLELNSEQNHDDYCLAYVFTDRDFDDGVLGLAWVGAPSGSSGGICEKSKLYSDGKKKSLNTGIITVQNYGSHVPPKVSHITFAHEVGHNFGSPHDSGTECTPGESKNLGQKENGNYIMYARATSGDKLNNNKFSLCSIRNISQVLEKKRNNCFVESGQPICGNGMVEQGEECDCGYSDQCKDECCFDANQPEGRKCKLKPGKQCSPSQGPCCTAQCAFKSKSEKCRDDSDCAREGICNGFTALCPASDPKPNFTDCNRHTQVCINGQCAGSICEKYGLEECTCASSDGKDDKELCHVCCMKKMDPSTCASTGSVQWSRHFSGRTITLQPGSPCNDFRGYCDVFMRCRLVDADGPLARLKKAIFSPELYENIAE
# Target: T1, Dabcyl-LAQAHomoPheRSC(Fluorescein)-NH2
# Experiment: enzyme kinetics, initial velocities fitted to a pure competitive two-site model
protein,measurement,value
B1,Ks (binding constant for substrate),"the binding constant, Ks for substrate was 16±4.6 µM"
